Test [1] has as its target T1, Hazel (Cor A 1, MyBiosource, Cat# MBS5304600) (Hazel, UniProt Q08407 2-160, limits assumed).
T1 construct: Bought reagent
T1 sequence (looked up): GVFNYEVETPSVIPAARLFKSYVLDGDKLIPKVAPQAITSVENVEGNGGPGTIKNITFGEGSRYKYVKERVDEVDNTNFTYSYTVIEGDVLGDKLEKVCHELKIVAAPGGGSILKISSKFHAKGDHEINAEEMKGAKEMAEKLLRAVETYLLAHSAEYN
Nature of the test: SPR Biacore 4000, mAb captured by anti-human Fc, 25 C.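 Note: allergen analyte binding to captured, purified anti-Bet v 1 monoclonal antibodies, SPR in HEPES-buffered saline running buffer with EDTA and Tween-20 at pH 7.4.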 A general note: In SPR one partner is held on a chip, and binding of the other changes the refractive index at the surface.

For test [2], the target named is T2, natural Bet v 1 (Betula verrucosa (Betula pendula), UniProt P15494 2-160).
T2 construct: Bought natural protein; also called nBet v 1
T2 chain: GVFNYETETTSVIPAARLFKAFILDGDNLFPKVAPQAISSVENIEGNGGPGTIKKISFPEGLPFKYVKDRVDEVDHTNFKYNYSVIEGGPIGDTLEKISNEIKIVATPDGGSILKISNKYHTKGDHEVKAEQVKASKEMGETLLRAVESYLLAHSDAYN
Nature of the test: SPR Biacore 4000, mAb captured on anti-human Fc, 25C.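 Note: purified anti-Bet v 1 mAbs probed with natural Bet v 1 in HBS-ET buffer (HEPES, NaCl, EDTA, Tween-20) at pH 7.4.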

Test [3] deals with T2, natural Bet v 1. Nature of the test: SPR Biacore 4000, mAb captured on anti-human Fc, 37C.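 Note: kinetic rate constants from SPR sensorgrams fitted to a 1:1 model with mass transport limitation, HBS-ET buffer pH 7.4, KD and t½ derived from the rate constants.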
Test [4] concerns the target T2, natural Bet v 1. Nature of the test: SPR Biacore 4000, mAb captured on anti-human Fc, 37C; 37 C.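 Note: kinetic rate constants from SPR sensorgrams fitted to a 1:1 model with mass transport limitation, HBS-ET buffer pH 7.4, KD and t½ derived from the rate constants.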
The target of test [5] is T2, natural Bet v 1. Nature of the test: cell-based or functional assay.
The target of test [6] is T3, natural Bet v 1 (Indoor Biotechnologies, # NA-BV1-1) (Betula verrucosa (Betula pendula), UniProt P15494 2-160, biotin labeled in the IgE blocking ELISA (Tables 12-14); unlabeled in the SPR of Table 18).
T3 construct: Bought natural allergen purified from birch pollen; also called nBet v 1; Biotinylated Bet v 1
T3 chain: T2 chain
Nature of the test: blocking ELISA, captured IgE of donor 23035-BL, 1 ug/mL each antibody. Background: In an ELISA, binding on a coated surface is turned into a signal by an enzyme label.

The target in test [7] is T3, natural Bet v 1 (Indoor …). Nature of the test: blocking ELISA, captured IgE of donor 23939-MH, 1 ug/mL each antibody.
Test [8] concerns the target T3, natural Bet v 1 (Indoor …). Nature of the test: blocking ELISA, captured IgE of donor 25299-RJ, 1 ug/mL each antibody.
Test [9] has as its target T3, natural Bet v 1 (Indoor …). Nature of the test: blocking ELISA, captured IgE of donor 25340-RR, 1 ug/mL each antibody.
Test [10] addresses T3, natural Bet v 1 (Indoor …). Nature of the test: blocking ELISA, captured IgE of donor 25414-CW, 1 ug/mL each antibody.
Test [11] deals with T3, natural Bet v 1 (Indoor …). Nature of the test: blocking ELISA, captured IgE of donor 25609-MS, 1 ug/mL each antibody.
Test [12] addresses T3, natural Bet v 1 (Indoor …). Nature of the test: blocking ELISA, captured IgE of donor 26532-CC, 1 ug/mL each antibody.
The target of test [13] is T3, natural Bet v 1 (Indoor …). Nature of the test: blocking ELISA, captured IgE of donor 29718-MW, 1 ug/mL each antibody.
Test [14] addresses T3, natural Bet v 1 (Indoor …). Nature of the test: dose-response blocking ELISA, captured IgE of donor 23939-MH, at 1 ug/mL each antibody.
Test [15] concerns the target T3, natural Bet v 1 (Indoor …). Nature of the test: dose-response blocking ELISA, captured IgE of donor 25340-RR, at 1 ug/mL each antibody.
In test [16] the target is T3, natural Bet v 1 (Indoor …). Nature of the test: dose-response blocking ELISA, captured IgE of donor 25609-MS, at 1 ug/mL each antibody.

This is an account of results in US20180346555A1 (Regeneron, published 2018).

A word on the Kd: it is the free concentration of one partner at which half of the binding sites on the other are occupied at equilibrium, for simple one-to-one binding. As usually defined, the koff is the rate constant with which the complex falls apart. Lower therefore signals slow dissociation. In general, kon refers to a measure of how fast the partners come together. A high value points to faster complex formation. The t½ is the time in which the quantity being followed falls by half. High values mean slow loss, low ones fast loss.

B1: H4H17027P (antibody, human IgG4, V domains shown)
VH: EVQLVESGGGLVQPGGSLRLSCAASGFTFRNYAMHWVRQAPGEGLEWVAAIYRNSDSIDYADSVKGRFTISRDNAKNSLYLQMNSLKTEDTALYYCAKDEGFLEYFDSWGQGTLVTVSS
VL: EIVLTQSPGTLSLSPGERASLSCRASQSVSSSFLAWYQQKPGQAPRLLIYGVSSRFIGIPDRFSGGGSGTDFTLTITRLEPEDFAVYYCQQYGRSPWTFGQGTKVEIK
notes: Fully human antibody with human IgG4 Fc (H4H prefix)
Take B1: in [1], the “100 nM Analyte Bound (RU)” value turned out to be 0 RU and the binding result was “no binding (tested: 100 nM)”.

B2: H4H17031P (antibody, human IgG4, V domains shown)
VH: QVQLQQWGAGLLKPSETLSLTCVVYGESFGNYHWNWIRQSPGKRLEWIGEINQNGHTNYNPSLKSRVTISVDTSKIQFSLRLNSVTAADTAVYFCARGHNYVNSYFGLDVWGQGTTVTVSS
VL: EIVMTQSPATLSVSPGERATLSCRTSQSVSISLAWYQRKPGQAPRLLIFGSSTRATGVPARFSGSGSGTEFTLTISSLQSEDFAVYYCQQYNNWPYTFGQGTKLEIK
On to B2, for which, in [2], the “100 nM natural Bet v 1 Bound (RU)” value was determined as 54 RU; the affinity, expressed as Kd, was 13.5 nM; the koff came to 0.00168 s⁻¹; the kon was 124000 M⁻¹ s⁻¹. Besides, the t½ in test [2] stood at 6.8 min. Moreover, in test [3], the “100 nM natural Bet v 1 Bound (RU)” value was found to be 63 RU and the t½ was found to be 2.1 min. In addition, in test [4], the Kd stood at 27.9 nM, the koff is 0.00544 s⁻¹ and the on-rate (kon) is about 195000 M⁻¹ s⁻¹.

B3: H4H17031P (antibody, human IgG4, V domains shown)
VH: B2 VH
VL: B2 VL
notes: as for B1
Take B3: in test [1], the “100 nM Analyte Bound (RU)” value was determined as 0 RU and the binding result was “no binding (tested: 100 nM)”.

B4: H4H17067P2 (antibody, human IgG4, V domains shown)
VH: EVQLVQSGAEVKKPGESLKISCSGSGYRFTNYWIAWVRQMPGKGLEWMGLIHPDDSDIRYSPSFQGQVTFSVDKSINTAYLQWSSLKASDTAMYYCTRQDGILWSHNAWFDPWGQGTLVTVSS
VL: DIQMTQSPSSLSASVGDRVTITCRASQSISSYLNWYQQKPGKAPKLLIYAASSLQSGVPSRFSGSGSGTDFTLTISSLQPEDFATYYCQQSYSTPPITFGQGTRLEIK
notes: as for B1
B4: the “100 nM Analyte Bound (RU)” value in test [1] is -1 RU.

B5: H4H17033P (antibody, human IgG4, V domains shown)
VH: QVQLVQSGAEVKKPGASVKVSCKASGYTFAAHYMHWVRQAPGQGLEWMGWINTYTGGTNYGQKFQGRVTMTRDTSITTAYMELSRLRSDDTAVYYCARDRRNWNFVFEYWGQGTLVTVSS
VL: DIQMTQSPSSLSASVGDRVTISCRASQNIKNYLNWYQQKPGKAPKLLIYEASNLQSGAPSRFSGSGSGTDFTLTISSLEPEDFATYYCQQSFSIPWTFGQGTKVEIK
notes: as for B1
In the case of B5, in test [1], the “100 nM Analyte Bound (RU)” value is 0 RU and the binding result is “no binding (tested: 100 nM)”.

B6: H4H17082P2 (antibody, human IgG4 S228P, kappa, V domains shown)
VH: QVQLVQSGAEVKKPGASVKVSCKASGYTFISYNIFWVRQATGQGLDWMGWMNPFRNNAGYAQKFQGRVTVTWDTSISTAYMELSSLSSEDTAIYYCAREHGSSWGFFDYWGQGTLVTVSS
VL: not shown
notes: Human IgG4; also called REGN5715; MAB2
For B6, the “blockade of basophil activation (phospho-Erk MFI in basophils of PBMCs from birch allergic donors, 100 pM natural Bet v 1)” value in [5] amounted to 70%. Also, in test [2], the “100 nM natural Bet v 1 Bound (RU)” value was 72 RU and the Kd was found to be 1.09 nM. Further, in test [3], the “100 nM natural Bet v 1 Bound (RU)” value was 83 RU, the dissociation constant (Kd) amounted to 2.43 nM and the t½ was 6.3 min.

B7: H4H17082P2 (antibody, human IgG4 S228P, kappa, V domains shown)
VH: B6 VH
VL: not shown
notes: human IgG4 Fc; also called REGN5715; MAB2
Turning to B7, the “100 nM Analyte Bound (RU)” value in test [1] is 20 RU.

B8: H4H17082P2 (antibody, human IgG4 S228P, kappa, V domains shown)
VH: B6 VH
VL: not shown
notes: human IgG4; also called REGN5715; MAB2
Turning to B8, the “Percent Blocking” value in test [6] was 52%; in [7], 79%; in [8], 66%; in [9] it was 81%; in [10], 38%; in test [11], 51%. The “Percent Blocking” value amounted to 74% in test [12]; 49% in test [13]; 82.9% in test [14]; 82.7% in test [15]; 56.4% in [16].

B9: H4H17038P2 (antibody, human IgG4 S228P, kappa, V domains shown)
VH: EVQLVESGGDLVQPGGSLRLSCAASGFTFSSYEMNWVRQAPGKGLEWVSFISDSSSNIYYADSVKGRFTISRDNAKKSLYLQMTSLRAEDTAVYYCAREAIGSTSFDNWGQGTLVTVSS
VL: EIVMTQSPATLSVSPGERATLSCRASQSVSSSLAWYQQKPGQAPRRLIYSASTRATGIPARFSGSGSGTEFTLTISSLQSEDFAIYYCHQYNNWPLTFGGGTKVEIKR
notes: human IgG4 Fc; also called REGN5714; MAB3
On to B9, for which, in test [1], the “100 nM Analyte Bound (RU)” value amounted to 0 RU and the binding result is listed as “no binding (tested: 100 nM)”.

B10: H4H17045P2 (antibody, human IgG4, V domains shown)
VH: EVQLVESGGGLVQPGVSLRLSCVASGFTFSNYDITWIRQIPGKGLEWVSRISGSGGSTYFADSVKGRFIISRDNSKNTVYMQMNSLRAEDSAVYYCARRDSVLFSMNSWLDPWGQGTLVTVSS
VL: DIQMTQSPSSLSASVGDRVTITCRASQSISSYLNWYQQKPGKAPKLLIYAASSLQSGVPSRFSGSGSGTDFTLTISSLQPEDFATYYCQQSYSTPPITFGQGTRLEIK
notes: as for B1
B10: in [1], the “100 nM Analyte Bound (RU)” value is 0 RU and the binding result is “no binding (tested: 100 nM)”.

B11: H4H17028P (antibody, human IgG4, V domains shown)
VH: QVQLVESGGGVVQPGRSLRLSCAASGFTFSRYAIHWVRQAPGKGLEWVAVISYDGDDKYYGDSVKGRFTISRDNSKTMVYLHMNSLRTEDTAVYYCAKDGYSLYGKDYFDYWGQGTLVTVSS
VL: EIVLTQSPGTLPLSPGERATLSCRASQSITNSYLAWYQQKPDQAPRLLIYGASSRATGIPDRFSGSESGTDFTLTISRLEPEDFAVYYCQQYVRSPWTFGQGTKVEIK
notes: as for B1
As to B11, in test [1], the “100 nM Analyte Bound (RU)” value was found to be 0 RU and the binding result is “no binding (tested: 100 nM)”.
